The record followed here is patent US20160108091A1.

The experiment addresses human APJ receptor (hAPJ) (human) (UniProt P35414). Kind of experiment: cell-based or functional assay.

Chain of human APJ receptor (hAPJ) (human) (P35414 whole entry): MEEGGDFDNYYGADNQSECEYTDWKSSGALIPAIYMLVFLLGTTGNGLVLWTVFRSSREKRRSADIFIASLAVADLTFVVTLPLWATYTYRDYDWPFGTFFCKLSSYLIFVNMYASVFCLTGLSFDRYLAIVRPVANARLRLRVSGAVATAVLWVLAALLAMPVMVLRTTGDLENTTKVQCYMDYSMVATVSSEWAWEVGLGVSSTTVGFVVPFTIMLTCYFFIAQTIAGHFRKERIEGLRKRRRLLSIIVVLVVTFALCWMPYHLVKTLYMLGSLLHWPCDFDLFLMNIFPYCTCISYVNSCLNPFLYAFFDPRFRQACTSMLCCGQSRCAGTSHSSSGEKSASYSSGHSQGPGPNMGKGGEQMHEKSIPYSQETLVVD

Consider “Fc-Apelin conjugate using sortase: Fc-GGGGS-LPET-GGGGG-QRPC*LSC*KGP(D-Nle)Phenethylamine (Fc fusion)”, for which the hAPJ Ca^2+ Flux EC50 is 28.9 nM.

“Conjugate of AH-Fc with apelin cyclic peptide: AH-Fc-BCN clicked to NH2-AzidoLys-GGGGS-Q-R-P-C-L-S-C-K-G-P-Dnle-Phenethylamine (from UniProt P0DOX5 223-449) (Fc fusion)”: the hAPJ Ca^2+ Flux EC50 was found to be 16.3 nM.
